Laboratory results as given in patent publication US20040136998A1 (published 2004).

Target: T1, prostate specific membrane antigen (PSMA) (human, UniProt Q04609 1-750)
T1 construct: whole, on cells; Target in all assays is PSMA on LNCaP (LNCap) cells or LNCaP membrane preparation; also called human PSMA
Experiment: ELISA on plates coated with LNCap membrane preparation; purified antibody; reference: J415 chimeric antibody

T1 sequence (Q04609 whole entry): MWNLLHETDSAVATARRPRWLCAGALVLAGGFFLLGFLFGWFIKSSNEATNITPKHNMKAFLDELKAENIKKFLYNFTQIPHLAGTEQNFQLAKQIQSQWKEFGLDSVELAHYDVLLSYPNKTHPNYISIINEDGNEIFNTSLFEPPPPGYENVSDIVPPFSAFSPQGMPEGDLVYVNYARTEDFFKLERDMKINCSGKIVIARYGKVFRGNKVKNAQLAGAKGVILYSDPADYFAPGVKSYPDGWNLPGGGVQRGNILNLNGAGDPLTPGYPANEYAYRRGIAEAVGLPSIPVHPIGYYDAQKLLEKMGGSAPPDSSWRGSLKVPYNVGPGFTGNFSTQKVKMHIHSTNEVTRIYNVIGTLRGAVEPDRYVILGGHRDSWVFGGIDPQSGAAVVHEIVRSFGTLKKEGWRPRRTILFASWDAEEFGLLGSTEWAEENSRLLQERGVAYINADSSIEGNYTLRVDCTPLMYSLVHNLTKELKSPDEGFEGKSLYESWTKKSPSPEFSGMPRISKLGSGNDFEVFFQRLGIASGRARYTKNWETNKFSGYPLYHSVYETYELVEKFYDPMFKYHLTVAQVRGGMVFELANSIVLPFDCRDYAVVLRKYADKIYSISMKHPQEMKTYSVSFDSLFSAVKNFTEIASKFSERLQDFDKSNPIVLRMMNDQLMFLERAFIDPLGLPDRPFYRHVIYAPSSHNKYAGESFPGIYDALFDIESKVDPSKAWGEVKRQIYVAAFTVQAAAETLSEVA

B1: deimmunized J415 antibody, heavy chain version 2 with light chain version 5 (antibody, V domains shown)
VH: EVKLEESGGGLVQPGGSMKISCVASGFTFSNYWMNWVRQTPEKGLEWVALIRSQSNNFATHYAESVKGRVIISRDDSKSSVYLQMNSLRAEDTAVYYCTRRWNNFWGQGTTVTVSS
VL: NIVMTQFPKSMSASAGERMTLTCKASENVGTYVSWYQQKPTQSPKMLIYGASNRFTGVPDRFSGSGSGTDFILTISSVQAEDLVDYYCGQSYTFPYTFGGGTKLEMK
- fold less binding than the chimeric antibody: 2 fold
